Measurements: publication PMC3502260, “Plasmodium serine hydroxymethyltransferase as a potential anti-malarial target: inhibition studies using improved methods for enzyme production and assay” (Malaria Journal, 2012)

Legend:
purified protein [1] = substrate: N[C@@H](CO)C(=O)O; test: purified protein; format: biochemical, Plasmodium vivax; conditions: apparent, 0.4 mM THF fixed, 25 °C, 50 mM HEPES pH 7, aerobic
purified protein [2] = substrate: Nc1nc2c(c(=O)[nH]1)N[C@@H](CNc1ccc(C(=O)N[C@@H](CCC(=O)O)C(=O)O)cc1)CN2; test: purified protein; format: biochemical, Plasmodium vivax; conditions: apparent, 2 mM L-serine fixed, 25 °C, 50 mM HEPES pH 7, aerobic

B1: PvSHMT (Plasmodium vivax Sal-1) (protein)
chain: MFNNEPLEQIDKELHDILADEEKRQRETINLIASENLTNGAVRECLGNRVSNKYSEGYPKKRYYGGNDFIDKIEELCQKRALEAFNVSDEEWGVNVQPLSGSAANVQALYALVGVKGKIMGMHLCSGGHLTHGFFDEKKKVSITSDMFESKLYKCNSQGYVDLDAVREMALSFKPKVIICGYTSYPRDIDYQQFRQICDEVNAYLFADISHISSFVACNILNNPFLHADVVTTTTHKILRGPRSALIFFNKKRNPGIEQKINSAVFPSFQGGPHNNKIAAVACQLKEVHSPAFKEYTQQVLLNSKALAKALISKQIDLVTNGTDNHLIVVDLRKFSITGSKLQETCNAINVSLNKNTIPSDVDCVSPSGVRIGTPAMTTRGAKEKDMEFIADVLARAIKITVDLQEQYGKKLVDFKKGLPGNAQLQQLKQEVVTWAGALPFP
notes: recombinant, expressed in E. coli BL21(DE3) as in an earlier report; dimer
In the case of B1, the Km (purified protein [1]) is reported as 190 ± 20 µM, the kcat (purified protein [1]) is reported as 1.26 ± 0.13 s⁻¹ and the Km (purified protein [2]) is reported as 90 ± 20 µM. For the same protein, the kcat (purified protein [2]) was 1.26 ± 0.13 s⁻¹.
